For 43 variants, abundance fitness results are on record in the Human Domainome abundance scans (Beltran et al. 2025).

± gives the uncertainty stated by the source.

The labels stand for the following.
B1: Formin-binding protein 4, residues 200 to 261; numbered along this chain, Q8N3X1 (parent)
chain: SGWQYDTQCSLAGVGIEMGDWQEVWDENTGCYYYWNTQTNEVTWELPQYLATQVQGLQHYQP

In this data set the parent is B1. Description: abundance fitness (aPCA) (normalised: wild type 0, dead -1); higher = more abundant; growth selection in yeast, the domain comes from the species named. The conditions noted are these: Homo sapiens.
As for SGWQYDTQCSLAGVGIEMGDWQEVWDENTGCYCYWNTQTNEVTWELPQYLATQVQGLQHYQP [Y33C], the abundance fitness is -0.213 ± 0.13.
Then SGWQYDTQCSLAGVGIEMGDWQEVWDENTGCYLYWNTQTNEVTWELPQYLATQVQGLQHYQP [Y33L], with -0.477 ± 0.073.
Then SGWQYDTQCSLAGVGIEMGDWQEVWDENTGCYWYWNTQTNEVTWELPQYLATQVQGLQHYQP [Y33W], with -0.52 ± 0.091; and SGWQYDTQCSLAGVGIEMGDWQEVWDENTGCYMYWNTQTNEVTWELPQYLATQVQGLQHYQP [Y33M], with -0.316 ± 0.079.
The value for SGWQYDTQCSLAGVGIEMGDWQEVWDENTGCYTYWNTQTNEVTWELPQYLATQVQGLQHYQP [Y33T] was -0.335 ± 0.099; that for SGWQYDTQCSLAGVGIEMGDWQEVWDENTGCYHYWNTQTNEVTWELPQYLATQVQGLQHYQP [Y33H] was -0.169 ± 0.17.
On to SGWQYDTQCSLAGVGIEMGDWQEVWDENTGCYDYWNTQTNEVTWELPQYLATQVQGLQHYQP [Y33D], for which the abundance fitness is -0.706 ± 0.15.
Then SGWQYDTQCSLAGVGIEMGDWQEVWDENTGCYGYWNTQTNEVTWELPQYLATQVQGLQHYQP [Y33G], with -0.576 ± 0.063; and SGWQYDTQCSLAGVGIEMGDWQEVWDENTGCYPYWNTQTNEVTWELPQYLATQVQGLQHYQP [Y33P], with -0.676 ± 0.12; and SGWQYDTQCSLAGVGIEMGDWQEVWDENTGCYVYWNTQTNEVTWELPQYLATQVQGLQHYQP [Y33V], with -0.447 ± 0.061.
Regarding SGWQYDTQCSLAGVGIEMGDWQEVWDENTGCYIYWNTQTNEVTWELPQYLATQVQGLQHYQP [Y33I], the abundance fitness was -0.566 ± 0.25.
The value for SGWQYDTQCSLAGVGIEMGDWQEVWDENTGCYRYWNTQTNEVTWELPQYLATQVQGLQHYQP [Y33R] was -0.201 ± 0.059.
The value for SGWQYDTQCSLAGVGIEMGDWQEVWDENTGCYKYWNTQTNEVTWELPQYLATQVQGLQHYQP [Y33K] was 0.016 ± 0.08; that for SGWQYDTQCSLAGVGIEMGDWQEVWDENTGCYFYWNTQTNEVTWELPQYLATQVQGLQHYQP [Y33F] was -0.281 ± 0.15.
Then SGWQYDTQCSLAGVGIEMGDWQEVWDENTGCYEYWNTQTNEVTWELPQYLATQVQGLQHYQP [Y33E], with -0.458 ± 0.1; and SGWQYDTQCSLAGVGIEMGDWQEVWDENTGCYQYWNTQTNEVTWELPQYLATQVQGLQHYQP [Y33Q], with -0.389 ± 0.1; and SGWQYDTQCSLAGVGIEMGDWQEVWDENTGCYSYWNTQTNEVTWELPQYLATQVQGLQHYQP [Y33S], with -0.212 ± 0.075.
On to SGWQYDTQCSLAGVGIEMGDWQEVWDENTGCYAYWNTQTNEVTWELPQYLATQVQGLQHYQP [Y33A], for which the abundance fitness is -0.691 ± 0.09.
Then SGWQYDTQCSLAGVGIEMGDWQEVWDENTGCTYYWNTQTNEVTWELPQYLATQVQGLQHYQP [Y32T], with -0.773 ± 0.11; and SGWQYDTQCSLAGVGIEMGDWQEVWDENTGCWYYWNTQTNEVTWELPQYLATQVQGLQHYQP [Y32W], with -0.543 ± 0.11; and SGWQYDTQCSLAGVGIEMGDWQEVWDENTGCPYYWNTQTNEVTWELPQYLATQVQGLQHYQP [Y32P], with -0.417 ± 0.11.
Regarding SGWQYDTQCSLAGVGIEMGDWQEVWDENTGCQYYWNTQTNEVTWELPQYLATQVQGLQHYQP [Y32Q], the abundance fitness is -0.818 ± 0.16.
Then SGWQYDTQCSLAGVGIEMGDWQEVWDENTGCRYYWNTQTNEVTWELPQYLATQVQGLQHYQP [Y32R], with -0.792 ± 0.1; and SGWQYDTQCSLAGVGIEMGDWQEVWDENTGCSYYWNTQTNEVTWELPQYLATQVQGLQHYQP [Y32S], with -0.567 ± 0.089; and SGWQYDTQCSLAGVGIEMGDWQEVWDENTGCVYYWNTQTNEVTWELPQYLATQVQGLQHYQP [Y32V], with -0.677 ± 0.077.
On to SGWQYDTQCSLAGVGIEMGDWQEVWDENTGCYYDWNTQTNEVTWELPQYLATQVQGLQHYQP [Y34D], for which the abundance fitness was -1 ± 0.23.
As for SGWQYDTQCSLAGVGIEMGDWQEVWDENTGCYYPWNTQTNEVTWELPQYLATQVQGLQHYQP [Y34P], the abundance fitness is -1.21 ± 0.22.
Then SGWQYDTQCSLAGVGIEMGDWQEVWDENTGCYYEWNTQTNEVTWELPQYLATQVQGLQHYQP [Y34E], with -0.791 ± 0.13.
The value for SGWQYDTQCSLAGVGIEMGDWQEVWDENTGCYYKWNTQTNEVTWELPQYLATQVQGLQHYQP [Y34K] was -0.726 ± 0.17.
Take SGWQYDTQCSLAGVGIEMGDWQEVWDENTGCYYCWNTQTNEVTWELPQYLATQVQGLQHYQP [Y34C]: the abundance fitness was -0.927 ± 0.22.
Regarding SGWQYDTQCSLAGVGIEMGDWQEVWDENTGCYYLWNTQTNEVTWELPQYLATQVQGLQHYQP [Y34L], the abundance fitness was -0.796 ± 0.088.
Then SGWQYDTQCSLAGVGIEMGDWQEVWDENTGCYYSWNTQTNEVTWELPQYLATQVQGLQHYQP [Y34S], with -0.862 ± 0.11.
Consider SGWQYDTQCSLAGVGIEMGDWQEVWDENTGCYYTWNTQTNEVTWELPQYLATQVQGLQHYQP [Y34T], for which the abundance fitness was -0.847 ± 0.14.
The value for SGWQYDTQCSLAGVGIEMGDWQEVWDENTGCYYFWNTQTNEVTWELPQYLATQVQGLQHYQP [Y34F] was -0.18 ± 0.11; that for SGWQYDTQCSLAGVGIEMGDWQEVWDENTGCYYWWNTQTNEVTWELPQYLATQVQGLQHYQP [Y34W] was -0.449 ± 0.082.
The value for SGWQYDTQCSLAGVGIEMGDWQEVWDENTGCYYHWNTQTNEVTWELPQYLATQVQGLQHYQP [Y34H] was -0.873 ± 0.34; that for SGWQYDTQCSLAGVGIEMGDWQEVWDENTGCYYVWNTQTNEVTWELPQYLATQVQGLQHYQP [Y34V] was -0.669 ± 0.083.
The value for SGWQYDTQCSLAGVGIEMGDWQEVWDENTGCYYQWNTQTNEVTWELPQYLATQVQGLQHYQP [Y34Q] was -0.946 ± 0.15; that for SGWQYDTQCSLAGVGIEMGDWQEVWDENTGCYYAWNTQTNEVTWELPQYLATQVQGLQHYQP [Y34A] was -0.866 ± 0.11.
In the case of SGWQYDTQCSLAGVGIEMGDWQEVWDENTGCYYMWNTQTNEVTWELPQYLATQVQGLQHYQP [Y34M], the abundance fitness was -0.962 ± 0.14.
The value for SGWQYDTQCSLAGVGIEMGDWQEVWDENTGCYYGWNTQTNEVTWELPQYLATQVQGLQHYQP [Y34G] was -0.664 ± 0.084; that for SGWQYDTQCSLAGVGIEMGDWQEVWDENTGCYYYWNIQTNEVTWELPQYLATQVQGLQHYQP [T37I] was -0.022 ± 0.085.
On to SGWQYDTQCSLAGVGIEMGDWQEVWDENTGCYYYWNEQTNEVTWELPQYLATQVQGLQHYQP [T37E], for which the abundance fitness is -0.297 ± 0.11.
